Laboratory results: US20210238298A1 (ALLIGATOR BIOSCIENCE, published 2021)

T1: OX40 chimera 1545: human OX40 with mouse domains 1B, 2A and 2B (aa 43-107), on FreeStyle 293-F cells (human; mouse, UniProt P47741 39-103)
T1 construct: domain: 1B, 2A and 2B; Limits derived as for 1544
T1 sequence: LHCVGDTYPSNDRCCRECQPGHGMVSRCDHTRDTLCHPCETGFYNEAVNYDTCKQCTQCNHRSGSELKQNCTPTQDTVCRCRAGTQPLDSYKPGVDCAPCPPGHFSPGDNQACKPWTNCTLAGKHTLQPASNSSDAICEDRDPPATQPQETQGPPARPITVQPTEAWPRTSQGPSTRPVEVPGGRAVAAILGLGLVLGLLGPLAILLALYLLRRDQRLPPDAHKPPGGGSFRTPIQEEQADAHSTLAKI

T2: OX40 chimera 1548: human OX40 with mouse module 3 and domains 4A and 4B (aa 108-167), on FreeStyle 293-F cells (human; mouse, UniProt P47741 104-165)
T2 construct: domain: module 3, 4A and 4B; Limits derived as for 1544
T2 sequence: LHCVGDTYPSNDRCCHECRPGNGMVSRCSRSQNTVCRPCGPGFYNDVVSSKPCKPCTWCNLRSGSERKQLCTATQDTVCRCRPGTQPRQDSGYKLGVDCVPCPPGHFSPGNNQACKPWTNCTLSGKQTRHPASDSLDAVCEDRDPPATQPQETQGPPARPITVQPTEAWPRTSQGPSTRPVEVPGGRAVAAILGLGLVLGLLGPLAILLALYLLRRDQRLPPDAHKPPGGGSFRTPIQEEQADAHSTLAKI

T3: construct 84: full length OX40 sequence, on FreeStyle 293-F cells (human, UniProt P43489 29-277)
T3 sequence: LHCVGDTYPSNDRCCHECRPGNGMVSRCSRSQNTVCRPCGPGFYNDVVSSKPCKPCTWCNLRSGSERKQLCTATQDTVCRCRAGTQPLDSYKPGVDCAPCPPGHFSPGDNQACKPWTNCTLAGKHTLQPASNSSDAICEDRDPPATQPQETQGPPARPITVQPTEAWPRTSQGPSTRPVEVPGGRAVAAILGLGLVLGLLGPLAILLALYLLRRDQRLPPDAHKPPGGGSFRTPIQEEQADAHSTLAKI

T4: OX40 chimera 1544: human OX40 with mouse domains 1A, 1B and 2A (aa 30-81), on FreeStyle 293-F cells (human; mouse, UniProt P47741 26-77)
T4 construct: domain: 1A, 1B and 2A
T4 sequence: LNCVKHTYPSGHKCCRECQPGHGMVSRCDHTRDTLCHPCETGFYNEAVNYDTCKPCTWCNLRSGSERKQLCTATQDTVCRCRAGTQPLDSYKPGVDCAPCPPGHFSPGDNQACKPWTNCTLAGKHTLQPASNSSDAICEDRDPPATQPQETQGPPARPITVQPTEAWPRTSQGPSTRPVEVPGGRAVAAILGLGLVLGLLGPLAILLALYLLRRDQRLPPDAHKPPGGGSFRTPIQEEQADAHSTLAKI

T5: OX40 chimera 1546: human OX40 with mouse domains 2A, 2B and module 3 (aa 66-126), on FreeStyle 293-F cells (human; mouse, UniProt P47741 62-124)
T5 construct: domain: 2A, 2B and module 3; Limits derived as for 1544
T5 sequence: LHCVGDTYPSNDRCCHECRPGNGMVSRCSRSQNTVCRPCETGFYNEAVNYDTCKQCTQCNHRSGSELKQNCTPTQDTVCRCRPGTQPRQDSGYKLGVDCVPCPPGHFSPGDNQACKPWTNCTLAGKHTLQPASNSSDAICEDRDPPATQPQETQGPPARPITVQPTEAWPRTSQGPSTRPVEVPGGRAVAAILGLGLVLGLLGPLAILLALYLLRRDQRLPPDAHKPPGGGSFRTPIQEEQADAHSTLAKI

T6: OX40 chimera 1547: human OX40 with mouse domain 2B, module 3 and domain 4A (aa 83-141), on FreeStyle 293-F … (human; mouse, UniProt P47741 79-139)
T6 construct: domain: 2B, module 3 and 4A; Limits derived as for 1544
T6 sequence: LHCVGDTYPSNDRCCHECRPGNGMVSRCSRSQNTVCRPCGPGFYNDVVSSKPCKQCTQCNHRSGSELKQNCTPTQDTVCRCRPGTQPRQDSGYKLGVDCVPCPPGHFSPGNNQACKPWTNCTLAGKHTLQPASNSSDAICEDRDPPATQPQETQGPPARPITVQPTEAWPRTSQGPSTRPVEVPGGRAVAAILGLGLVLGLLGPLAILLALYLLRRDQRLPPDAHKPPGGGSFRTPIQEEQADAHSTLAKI

T7: Human OX40 (R&D systems, #3358_OX) (human, UniProt P43489 29-216)
T7 construct: Bought; Several catalogue numbers are given for it; also called human OX40 (R&D Systems, 3388-OX); OX40-Fc (R&D systems, #3358_OX); not shown: Fc part
T7 sequence: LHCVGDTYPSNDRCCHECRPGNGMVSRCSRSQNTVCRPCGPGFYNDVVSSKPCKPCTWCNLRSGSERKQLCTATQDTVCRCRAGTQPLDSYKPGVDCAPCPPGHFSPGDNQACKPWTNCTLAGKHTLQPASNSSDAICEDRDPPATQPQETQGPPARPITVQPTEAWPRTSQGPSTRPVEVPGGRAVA


Experiments:
[1] = molecular target: T1, OX40 chimera 1545: human OX40 with …; assay: flow cytometry, 293-F transfectants
Method: (§1) The mouse/human chimeras were transiently transfected into FreeStyle 293-F cells (Invitrogen), incubated 48 hours in FreeStyle 293 expression medium (Invitrogen) 37 C, 8% CO₂, 135 rpm. The transfected cells were incubated with human OX40 antibodies, human OX40L (hOX40L, RnD Systems), mouse OX40L (mOX40L, RnD Systems) and controls for 30 min 4° C. and then detected with a-huIgG-PE (Jackson Immunoresearch) 30 min 4° C. Cells were analyzed with FACS Verse (BD Biosciences). Binding to the different chimeric constructs were calculated as relative (mean fluorescence intensity) MFI compared to the binding of the isotype control.

[2] = molecular target: T2, OX40 chimera 1548: human OX40 with …; assay: flow cytometry, 293-F transfectants
Method: as §1

[3] = molecular target: T3, construct 84: full length OX40 …; assay: flow cytometry, 293-F transfectants
Method: as §1

[4] = molecular target: T4, OX40 chimera 1544: human OX40 with …; assay: flow cytometry, 293-F transfectants
Method: as §1

[5] = molecular target: T5, OX40 chimera 1546: human OX40 with …; assay: flow cytometry, 293-F transfectants
Method: as §1

[6] = molecular target: T6, OX40 chimera 1547: human OX40 with …; assay: flow cytometry, 293-F transfectants
Method: as §1

[7] = molecular target: T7, Human OX40 (R&D systems, #3358_OX); assay: ELISA, coated human OX40
Method: ELISA plates were coated with human OX40 (R&D Systems, 3388-OX), CD40 (Ancell), or CD137 (R&D Systems) at 0.1 or 0.5 μg/ml. The ELISA plates were washed with PBST and then blocked with PBST+2% BSA for 1h at room temperature and then washed again with PBST. The antibodies were added in dilution series to the ELISA plates for 1 h at room temperature and then washed with PBST. Binding was detected using goat anti human kappa light chain HRP, incubated for 1h at room temperature. SuperSignal Pico Luminescent was used as substrate and luminescence was measured using Fluostar Optima.

Row | Binder | relative MFI vs isotype control [1] | relative MFI vs isotype control [2] | relative MFI vs isotype control [3] | relative MFI vs isotype control [4] | relative MFI vs isotype control [5] | relative MFI vs isotype control [6] | EC50 [7]
1 | anti-OX40 antibody 1526/1527 (antibody, V domains shown, Tested as IgG) VH: EVQLLESGGGLVQPGGSLRLSCAASGFTFSGYSMYWVRQAPGKGLEWVSGIGYSGYGTYYADSVKGRFTISRDNSKNTLYLQMNSLRAEDTAVYYCARYYFHDYAAYSLDYWGQGTLVTVSS VL: DIQMTQSPSSLSASVGDRVTITCRASQSISSYLNWYQQKPGKAPKLLIYAASSLQSGVPSRFSGSGSGTDFTLTISSLQPEDFATYYCQQYGSDSLLTFGQGTKLEIK | 1.3 | 12.7 | 21.4 | 1.1 | 0.9 | 1 | < 1 nM
2 | anti-OX40 antibody 1168/1135 (antibody, V domains shown, Tested as IgG) VH: EVQLLESGGGLVQPGGSLRLSCAASGFTFSGSSMSWVRQAPGKGLEWVSSISYYGGYTYYADSVKGRFTISRDNSKNTLYLQMNSLRAEDTAVYYCARYFPHYYFDYWGQGTLVTVSS VL: not shown | 46.6 | 1 | 29.6 | 13.2 | 0.9 | 1 | < 1 nM
3 | anti-OX40 antibody 1542/1135 (antibody, V domains shown, Tested as IgG) VH: EVQLLESGGGLVQPGGSLRLSCAASGFTFGSSSMYWVRQAPGKGLEWVSGIGYYSYSTSYADSVKGRFTISRDNSKNTLYLQMNSLRAEDTAVYYCARGYPHHYFDYWGQGTLVTVSS VL: not shown | 40.2 | 1.2 | 29.4 | 7.1 | 0.9 | 1 | < 1 nM
4 | anti-OX40 antibody 1164/1135 (antibody, V domains shown, Tested as IgG) VH: EVQLLESGGGLVQPGGSLRLSCAASGFTFYGSSMYWVRQAPGKGLEWVSGIYSSGGYTSYADSVKGRFTISRDNSKNTLYLQMNSLRAEDTAVYYCARGVPHGYFDYWGQGTLVTVSS VL: not shown | 37.3 | 1 | 27.5 | 14 | 0.9 | 1 | < 1 nM

Continued, values first:

Row | relative MFI vs isotype control [1] | relative MFI vs isotype control [2] | relative MFI vs isotype control [3] | relative MFI vs isotype control [4] | relative MFI vs isotype control [5] | relative MFI vs isotype control [6] | EC50 [7] | Binder
5 | 44.4 | 1.1 | 24.9 | 8.4 | 0.9 | 1 | < 1 nM | anti-OX40 antibody 1482/1483 (antibody, V domains shown, Tested as IgG) VH: EVQLLESGGGLVQPGGSLRLSCAASGFTFSSYAMSWVRQAPGKGLEWVSYISYYSGYTYYADSVKGRFTISRDNSKNTLYLQMNSLRAEDTAVYYCARGYGYLDYWGQGTLVTVSS VL: DIQMTQSPSSLSASVGDRVTITCRASQSISSYLNWYQQKPGKAPKLLIYAASSLQSGVPSRFSGSGSGTDFTLTISSLQPEDFATYYCQQYGSLLTFGQGTKLEIK
6 | 0.9 | 15.4 | 31.4 | 1.5 | 0.9 | 1 | < 1 nM | anti-OX40 antibody 1524/1525 (antibody, V domains shown, Tested as IgG) VH: EVQLLESGGGLVQPGGSLRLSCAASGFTFGSYYMGWVRQAPGKGLEWVSSIGSYYGYTYYADSVKGRFTISRDNSKNTLYLQMNSLRAEDTAVYYCARHDYGALDYWGQGTLVTVSS VL: DIQMTQSPSSLSASVGDRVTITCRASQSISSYLNWYQQKPGKAPKLLIYAASSLQSGVPSRFSGSGSGTDFTLTISSLQPEDFATYYCQQYGPSGLFTFGQGTKLEIK
